T1: human LAG3 on HEK293F cells (human, UniProt P18627 23-525)
T1 construct: whole, on cells
T1 sequence (looked up): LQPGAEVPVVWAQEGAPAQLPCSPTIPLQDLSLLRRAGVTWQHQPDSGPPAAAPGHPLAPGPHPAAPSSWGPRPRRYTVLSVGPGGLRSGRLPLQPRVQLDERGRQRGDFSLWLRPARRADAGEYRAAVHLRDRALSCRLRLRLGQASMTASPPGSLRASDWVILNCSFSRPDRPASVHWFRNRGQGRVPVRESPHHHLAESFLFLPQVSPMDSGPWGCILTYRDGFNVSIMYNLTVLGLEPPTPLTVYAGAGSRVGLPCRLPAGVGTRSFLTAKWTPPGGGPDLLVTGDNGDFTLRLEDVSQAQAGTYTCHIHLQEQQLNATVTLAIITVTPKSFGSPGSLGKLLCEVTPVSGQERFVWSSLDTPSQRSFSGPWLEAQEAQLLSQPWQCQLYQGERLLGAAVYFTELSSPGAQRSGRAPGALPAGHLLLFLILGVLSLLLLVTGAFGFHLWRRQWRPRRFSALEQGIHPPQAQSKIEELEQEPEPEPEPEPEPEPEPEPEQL

T2: human OX40 on HEK293F cells (human, UniProt P43489 29-277)
T2 construct: whole, on cells
T2 sequence (looked up): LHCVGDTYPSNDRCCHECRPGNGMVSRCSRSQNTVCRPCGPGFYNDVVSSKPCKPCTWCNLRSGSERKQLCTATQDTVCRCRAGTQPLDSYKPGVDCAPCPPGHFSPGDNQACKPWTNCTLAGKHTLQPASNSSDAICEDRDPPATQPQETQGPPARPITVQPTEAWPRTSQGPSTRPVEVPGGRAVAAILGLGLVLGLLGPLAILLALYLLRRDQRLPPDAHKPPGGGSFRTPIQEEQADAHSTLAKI

T3: human TNFR1 on HEK293F cells (human, UniProt P19438 30-455)
T3 construct: whole, on cells; also called CD120a
T3 sequence (looked up): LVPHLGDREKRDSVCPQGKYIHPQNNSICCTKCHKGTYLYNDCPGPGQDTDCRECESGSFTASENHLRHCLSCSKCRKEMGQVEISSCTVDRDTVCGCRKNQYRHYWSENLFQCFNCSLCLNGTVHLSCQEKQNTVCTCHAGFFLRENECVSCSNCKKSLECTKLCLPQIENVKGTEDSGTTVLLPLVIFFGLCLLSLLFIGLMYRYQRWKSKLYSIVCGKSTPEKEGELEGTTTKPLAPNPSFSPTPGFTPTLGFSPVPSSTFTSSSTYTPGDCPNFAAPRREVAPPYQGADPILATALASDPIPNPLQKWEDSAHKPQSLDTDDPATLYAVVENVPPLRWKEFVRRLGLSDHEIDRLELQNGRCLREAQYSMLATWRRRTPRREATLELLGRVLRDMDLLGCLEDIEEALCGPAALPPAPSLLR

B1: TY21687 (antibody, V domains shown)
VH: EVQLVESGGGLVQPGGSLRLSCAASGFTFSGYAIHWVRQAPGKGLEWIGIISPSGGGTKYAQKFQGRVTISRDNSKNTLYLQLNSLRAEDTAVYYCARHPFAYWGQGTLVTVSS
VL: DIQLTQSPSSLSASVGDRVTITCRASQSVDFYGISFLDWYQQKPGKAPKLLIYDASNRATGIPSRFSGSGSGTDFTLTISSLQPEDFATYYCQQYVSSPPEYTFGQGTKVEIK
notes: human IgG1 (hIgG1) from Fab hit B15700
B2: TY21591 (antibody, V domains shown)
VH: EVQLVESGGGLVQPGGSLRLSCAASGFSLSTGGVAVSWIRQAPGKGLEWIGEIYHSGSTYYSPSLKSRVTISRDNSKNTLYLQLNSLRAEDTAVYYCARRIATATYFDYWGQGTLVTVSS
VL: DIQLTQSPSSLSASVGDRVTITCRASQTVFSRYLAWYQQKPGKAPKLLIYDASNRATGIPSRFSGSGSGTDFTLTISSLQPEDFATYYCQQSYYWPPWTFGQGTKVEIK
notes: human IgG1 (hIgG1) from Fab hit B15756

Columns and labels:
Experiment in all cases: flow cytometry, transfected HEK293F cells, 100 nM antibody [Cont.]
[1] = molecular target: T1, human LAG3 on HEK293F cells
Description: (§1) Antibody selectivity was next examined. Human CTLA4, PD1, LAG3, Tim3, B7H3, CD95, TNFR1, OX40, CD40, PD-L1, BLTA, VISTA, PDL2, ICOS and B7H4 were transiently overexpressed on the surface of HEK293F cells. Transfected cells were washed in pre-chilled 1×PBSA buffer (1.76 mM KH2PO4, 10.14 mM Na2HPO4.12H2O, 2.68 mM KCl, 136.89 mM NaCl and 1% BSA), then incubated with 100 nM test antibodies for 1 hour on ice. Cells were washed once with staining buffer, and Alexa Fluor® 647 conjugated mouse anti-human FC antibodies were added and incubated for 30 minutes on ice, protected from light. Samples were washed once with staining buffer prior to analysis by flow cytometry.

[2] = molecular target: T2, human OX40 on HEK293F cells
Description: as §1

[3] = molecular target: T3, human TNFR1 on HEK293F cells
Description: as §1

Row | Binder | % of cells in upper right quadrant (Q2) [1] [%] | % of cells in upper right quadrant (Q2) [2] | Mean [2] | % of cells in upper right quadrant (Q2) [3] | Mean [3]
1 | B1 | 1.31 | – | – | – | –
2 | B2 | – | 0.42 | 11900 | 0.33 | 6490

Source: patent US20190241662A1 (ADAGENE, published 2019)
